Assay results reported in patent publication US20160311912A1 (RINAT NEUROSCIENCE, published 2016).
Positions count from the first letter of the chain named. Each block holds one binder with its values, some of them ahead of it.

Tests used:
[1] = target: T1, glucagon receptor (target of the KD / T½ of Tables 1A, 1B and 2B) (Homo sapiens (Human), UniProt P47871 26-136); test: not stated (column of Table 1A)
T1 construct: not shown: Human Fc carrier (and any linker) of the ECD-Fc fusion

[2] = target: human glucagon receptor on stably transfected CHO cells (human, UniProt P47871 26-477); test: cell-based or functional assay
human glucagon receptor on stably transfected CHO cells, sequence (P47871 26-477 limits assumed): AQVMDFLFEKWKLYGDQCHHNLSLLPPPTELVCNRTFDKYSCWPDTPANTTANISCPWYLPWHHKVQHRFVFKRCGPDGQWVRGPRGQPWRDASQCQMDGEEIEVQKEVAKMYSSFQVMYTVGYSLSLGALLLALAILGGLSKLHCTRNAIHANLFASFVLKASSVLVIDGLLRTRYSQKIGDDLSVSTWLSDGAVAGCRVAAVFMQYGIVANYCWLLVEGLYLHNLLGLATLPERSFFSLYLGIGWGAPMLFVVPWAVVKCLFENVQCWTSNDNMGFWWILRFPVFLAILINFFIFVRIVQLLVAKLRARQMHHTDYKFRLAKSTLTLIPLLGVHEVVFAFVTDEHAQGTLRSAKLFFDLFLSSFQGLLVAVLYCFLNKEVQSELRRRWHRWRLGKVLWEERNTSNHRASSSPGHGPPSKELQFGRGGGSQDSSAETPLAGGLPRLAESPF

[3] = target: T2, Cynomolgus monkey (cyno) glucagon receptor extracellular domain human Fc fusion protein (cynomolgus monkey); test: SPR (Biacore T200), receptor-Fc captured on anti-human Fc chip, mAb5 Fab as analyte, 25° C.; limit reported
T2 construct: extracellular domain
Experimental: (§1) An anti-human Fc sensor chip was prepared by activating all flow cells of a Biacore CM4 sensor chip with a 1:1 (v/v) mixture of 400 mM EDC and 100 mM NHS for 7 minutes, at a flow rate of 10 μL/min. Goat anti-human Fc antibody (Southern Biotech) was diluted to 50 μg/mL in 10 mM sodium acetate pH 5.0 and injected on all flow cells for 7 minutes at 20 μL/min. All flow cells were blocked with 100 mM ethylenediamine in 150 mM borate buffer pH 8.5 for 7 minutes at 10 μL/min. The running buffer for this immobilization procedure was 10 mM HEPES, 150 mM NaCl, 0.05% (v/v) TWEEN® 20, pH 7.4.
(§2) The following kinetics experiments were performed at 25° C. and 37° C. using a running buffer of 10 mM HEPES, 150 mM NaCl, 0.05% (v/v) TWEEN® 20, pH 7.4, 1 mg/mL BSA.
(§3) All experiments were performed on a Biacore™ T200 surface Plasmon resonance biosensor (GE Lifesciences, Piscataway N.J.). Human and cynomolgus monkey (cyno) glucagon receptor extracellular domain human Fc fusion proteins were captured onto downstream flow cells (flow cells 2, 3, respectively) at 2 μg/mL at a flow rate of 10 μL/min for 3 minutes. […] After the analyte injection, dissociation was monitored for 10 minutes (for the 20 nM and 100 nM mAb5 Fab analyte samples) or 30 seconds (for the 0.16, 0.8, and 4 nM mAb5 Fab analyte samples). Dissociation was monitored for 30 seconds and 10 minutes for buffer analyte cycles. […]

[4] = target: T2, Cynomolgus monkey (cyno) glucagon …; test: SPR (Biacore T200), receptor-Fc captured on anti-human Fc chip, mAb5 Fab as analyte, 25° C.
Experimental: as §1, §2
(§4) All experiments were performed on a Biacore™ T200 surface Plasmon resonance biosensor (GE Lifesciences, Piscataway N.J.). Human and cynomolgus monkey (cyno) glucagon receptor extracellular domain human Fc fusion proteins were captured onto downstream flow cells (flow cells 2, 3, respectively) at 2 μg/mL at a flow rate of 10 μL/min for 3 minutes. Flow cell 1 was used as a blank reference surface. Following capture of glucagon receptor Fc fusion proteins, analyte (buffer, or mAb5 Fab) was injected at 30 μL/min on all flow cells for two minutes. Multiple mAb5 Fab analyte concentrations were tested. The mAb5 Fab analyte concentrations were 0.16, 0.8, 4, 20 and 100 nM. After the analyte injection, dissociation was monitored for 10 minutes (for the 20 nM and 100 nM mAb5 Fab analyte samples) or 30 seconds (for the 0.16, 0.8, and 4 nM mAb5 Fab analyte samples). Dissociation was monitored for 30 seconds and 10 minutes for buffer analyte cycles. Following analyte binding and dissociation all flow cells were regenerated with four 1-minute injections of 75 mM phosphoric acid. The sensorgram data were double referenced prior to curve fitting (double referencing as described in Myszka, D. G., 1999, J. Mol. Recognit., 12:279-284. The double referenced sensorgrams were fit globally to a simple 1:1 Langmuir with mass transport binding model using the Biacore™ T200 evaluation software. The binding affinity data for anti-glucagon receptor antagonist antibody mAb5 binding to human and cyno glucagon receptor are shown below in Table 4.

[5] = target: T3, Human glucagon receptor extracellular domain human Fc fusion protein (human, UniProt P47871 26-136, limits assumed); test: as above
T3 construct: also called glucagon receptor Fc fusion protein; not shown: human Fc
T3 sequence (P47871 26-136 limits assumed): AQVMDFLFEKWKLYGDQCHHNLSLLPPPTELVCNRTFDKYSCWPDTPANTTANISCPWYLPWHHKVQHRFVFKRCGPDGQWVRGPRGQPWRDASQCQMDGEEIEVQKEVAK
Experimental: as §1, §2, §4

[6] = target: T2, Cynomolgus monkey (cyno) glucagon …; test: SPR (Biacore T200), receptor-Fc captured on anti-human Fc chip, mAb5 Fab as analyte, 25° C.; dissociation too slow, limit reported
Experimental: as §1, §2, §3

[7] = target: T2, Cynomolgus monkey (cyno) glucagon …; test: SPR (Biacore T200), receptor-Fc captured on anti-human Fc chip, mAb5 Fab as analyte, 37° C.
Experimental: as §1, §2, §4

[8] = target: T3, Human glucagon receptor extracellular …; test: as above
Experimental: as §1, §2, §4

[9] = target: T1, glucagon receptor (target of the KD / …); test: not stated (column of Table 1B)
[10] = target: T1, glucagon receptor (target of the KD / …); test: not stated; 37° C. (entry printed a second time)
[11] = target: T1, glucagon receptor (target of the KD / …); test: not stated; 37° C.

T1 sequence (P47871 26-136 limits assumed): as above

B7: FF2 (antibody, V domains shown)
VH: QVQLVQSGAEVKKPGASVKVSCKASGYTFTDFSVHWVRQAPGQGLEWMGWINTEYDFTSYADDFKGRVTMTRDTSTSTVYMELSSLRSEDTAVYYCVKSLYWSYGPPDYWGQGTTVTVSS
VL: DIQMTQSPSSLSASVGDRVTITCQASQNIRTAVVWYQQKPGKAPKLLIYLASNRHSGVPSRFSGSGSGTDFTFTISSLQPEDIATYYCLQHWTYPFTFGGGTKVEIK
- Kd [9]: 0.171 nM

B9: H2-C8-H3-2 (antibody, V domains shown)
VH: B7 VH with Y55T, D56R, F57G, Y101F
VL: B7 VL with Q24R, S52T, T97S, V104L
- T½ [10]: 6.89 h
- T½ [11]: 6.89 h

B10: H2-A11-H3-4 (antibody, V domains shown)
VH: B7 VH with L100R, Y101W
VL: B7 VL with Q24R, S52T, T97S, V104L
- T½ [10]: 6.36 h
- T½ [11]: 6.36 h

B11: H2-C8-H3-3 (antibody, V domains shown)
VH: B7 VH with Y55T, D56R, F57G
VL: B7 VL with Q24R, S52T, T97S, V104L
- T½ [10]: 12.4 h
- T½ [11]: 12.4 h

B12: FF2-H2RG (antibody, V domains shown)
VH: B7 VH with Y55T, D56R, F57G
VL: B7 VL
- Kd [9]: 0.187 nM

B13: FF2-H2WT (antibody, V domains shown)
VH: B7 VH with Y55T, F57E
VL: B7 VL
- Kd [9]: < 0.2 nM

Other lines, results leading:

- Kd [1]: 0.64 nM
B1: mAb1 (antibody, V domains shown)
VH: QIQLVQSGPELKKPGETVKISCKASGYTFTDFSIHWVKQAPGKGLKWMGWINTETDESTYADDFKGRFAFSLETSASTAYLQINNLKNEDTATYFCVKSRGWTYGPPDYWGQGTTLTVSS
VL: DIVMTQSQKFMSASVGDRVSITCKASQNVRTAVVWFQQKPGQSPNTLIYLASNRHSEVPDRFTGSGSGTDFTLTISNVQSEDLADYFCLQHWTYPFTFASGTKLEIK

- Kd [1]: 10.2 nM
B2: mAb4 (antibody, V domains shown)
VH: QVQLVQSGAEVKKPGASVKVSCKASGYTFTSSLIHWVRQAPGQGLEWMGYINPYNDGTKYNEKFKGRVTMTRDTSTSTVYMELSSLRSEDTAVYYCARMDYGNLWYFDVWGQGTLVTVSS
VL: EIVLTQSPATLSLSPGERATLSCRASENIYYSLAWYQQKPGQAPRLLIYNANSLEDGIPARFSGSGSGTDFTLTISSLEPEDFAVYYCKQAYDVPFTFGGGTKVEIK

- Kd [1]: 0.224 nM
- IC50 (read off the curve) [2]: ~1 µg/mL
B3: anti-glucagon receptor antagonist antibody mAb5 (antibody, V domains shown)
VH: B7 VH with Y55T, F57E, L100R
VL: DIQMTQSPSSLSASVGDRVTITCQASQNIRTAVVWYQQKPGKAPKLLIYLASNRHSGVPSRFSGSGSGTDFTFTISSLQPEDIATYYCLQHWTYPFTFGGGTKVEIKR
notes: Fluorescence-labeled in the yeast display experiment

- Kd [3]: < 0.17 nM
- t1/2 [3]: > 2.27 h
- kon [4]: 500000 M⁻¹ s⁻¹
- Kd [5]: 0.22 nM
- koff [5]: 0.0001 s⁻¹
- kon [5]: 460000 M⁻¹ s⁻¹
- t1/2 [5]: 1.93 h
- koff [6]: < 8.5e-05 s⁻¹
- Kd [7]: 0.72 nM
- koff [7]: 0.00054 s⁻¹
- kon [7]: 750000 M⁻¹ s⁻¹
- t1/2 [7]: 0.35 h
- Kd [8]: 0.75 nM
- koff [8]: 0.00049 s⁻¹
- kon [8]: 650000 M⁻¹ s⁻¹
- t1/2 [8]: 0.4 h
B4: mAb5 Fab (Fab, V domains shown)
VH: B7 VH with Y55T, F57E, L100R
VL: B7 VL
notes: also called Fab of anti-glucagon receptor antagonist antibody mAb5

- Kd [9]: 0.224 nM
B5: FF2-H2WT H3RY (antibody, V domains shown)
VH: B7 VH with Y55T, F57E, L100R
VL: B7 VL

- T½ [1]: 5.75 min
B6: mAb2 (antibody, V domains shown)
VH: B7 VH with Y55T, F57E, L100R, Y101G
VL: B7 VL with Q24R, S52T, T97S, V104L

- Kd [9]: < 0.125 nM
B8: FF2-H3RY (antibody, V domains shown)
VH: B7 VH with L100R
VL: B7 VL
